Test results: paper PMC5401885, “Isoprenoid Pyrophosphate-Dependent Transcriptional Regulation of Carotenogenesis in Corynebacterium glutamicum” (Frontiers in Microbiology, 2017)

Columns and labels:
[1] = molecular target: T1, CrtR (CrtRHis6, His-tagged CrtR) (Corynebacterium glutamicum, UniProt Q8NSP1); test: EMSA, loss of CrtR binding to crtE-crtR intergenic DNA; conditions: 30-fold molar excess CrtR over DNA; 15 min pre-incubation, room temperature; 50 mM Tris-HCl pH 7.5, 50 mM KCl, 10 mM MgCl2
T1 construct: gene Cgl0627; full length, 195 aa; N-terminal His-tag (pET16b, decahistidine) kept; expressed in E. coli BL21(DE3); Ni-NTA purified; cloning primers give N-terminus MLNMQE and C-terminus WLNTE
T1 sequence (Q8NSP1 1-195): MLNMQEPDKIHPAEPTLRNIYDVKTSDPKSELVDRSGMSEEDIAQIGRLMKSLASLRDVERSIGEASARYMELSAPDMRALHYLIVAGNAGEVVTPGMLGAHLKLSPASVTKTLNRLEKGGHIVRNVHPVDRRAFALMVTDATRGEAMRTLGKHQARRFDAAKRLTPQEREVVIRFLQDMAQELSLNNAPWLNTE

[2] = molecular target: T1, CrtR (CrtRHis6, His-tagged CrtR); test: as above; conditions: 30-fold molar excess CrtR over DNA; 15 min pre-incubation, room temperature; 50 mM Tris-HCl pH 7.5, 50 mM KCl, 10 mM MgCl2; remark: listed apart in the source
[3] = molecular target: T2, CrtR (His-tagged) (Corynebacterium glutamicum ATCC 13032) (UniProt Q8NSP1); test: EMSA; conditions: 50 mM Tris-HCl pH 7.5, 10% glycerol, 50 mM KCl, 10 mM MgCl2, 0.5 mM EDTA, 20 uL, 90 ng DNA, 30 min at room temperature; 6% DNA retardation gel
T2 sequence: T1 sequence (Q8NSP1 1-195)

Compound	binding [3]	also measured
CC(C)=CCOP(=O)(O)OP(=O)(O)O [DMAPP, dimethylallyl pyrophosphate]	–	EMSA, loss of CrtR binding to crtE-crtR intergenic DNA [1]: FPP, GPP, IPP and DMAPP exerted similar effects on CrtR binding in vitro
CC(C)=CCC/C(C)=C/CC/C(C)=C/COP(=O)(O)OP(=O)(O)O [FPP, farnesyl pyrophosphate]	–	EMSA, loss of CrtR binding to crtE-crtR intergenic DNA [1]: farnesyl pyrophosphate (FPP) and GGPP perturbed binding of His-tagged CrtR to the intergenic region
CC(C)=CCC/C(C)=C/CC/C(C)=C/CC/C(C)=C/COP(=O)(O)OP(=O)(O)O [GGPP]	–	lowest effective concentration [2]: 50 µM
CC(C)=CCC/C(C)=C/COP(=O)(O)OP(=O)(O)O [GPP, geranyl pyrophosphate]	–	EMSA, loss of CrtR binding to crtE-crtR intergenic DNA [1]: FPP, GPP, IPP and DMAPP exerted similar effects on CrtR binding in vitro
C=C(C)CCOP(=O)(O)OP(=O)(O)O [IPP, isopentenyl pyrophosphate]	–	EMSA, loss of CrtR binding to crtE-crtR intergenic DNA [1]: FPP, GPP, IPP and DMAPP exerted similar effects on CrtR binding in vitro
AAAAATAGGCCCTCATGGGATACTATAAATTTCTTGTAGGCACATTATTTTTATGGACCCAAATTCACACTTTCTGTACTTCATCAAAATAAAGCGCCATATACAACGATTGGGAATTTTTGCGAGATAACTGGCCGTGTGATACTCGA (double strand) [fragment I (motif 1 TTAA to GGCC)]	no binding	–
AAAAATATTAACTCATGGGATACTATAAATTTCTTGTAGGCACATTATTTTTATGGACCCAAATTCACACTTTCTGTACTTCATCAAAATAAAGCGCCATATACAACGATTGGGAATTTTTGCGAGATAACTGGCCGTGTGATACTCGA (double strand) [fragment C]	binds	–
AAAAATATTAACTCATGGGATACTATCCCGGGCTTGTAGGCACATTATTTTTATGGACCCAAATTCACACTTTCTGTACTTCATCAAAATAAAGCGCCATATACAACGATTGGGAATTTTTGCGAGATAACTGGCCGTGTGATACTCGA (double strand) [fragment H (motif 2 AAATTT to CCCGGG)]	binds	–
AACTCATGGGATACTATAAATTTCTTGTAGGCACATTATTTTTATGGACCCAAATTCACACTTTCTGTACTTCATCAAAATAAAGCGCCATATACAACGATTGGGAATTTTTGCGAGATAACTGGCCGTGTGATACTCGA (double strand) [fragment B]	no binding	–
ATTCAGCATAGTAATCACCTTTTTCTACAAAGTCAGATAAAGTTTATTTTTAAAAATATTAACTCATGGGATACTATAAATTTCTTGTAGGCACATTATTTTTATGGACCCAAATTCACACTTTCTGTACTTCATCAAAATAAAGCGCCATATACAACGATTGGGAATTTTTGCGAGATAACTGGCCGTGTGATACTCGA (double strand) [fragment A (full crtE-crtR intergenic region)]	binds	–
CACCAATACTACGTTCCACATCGCGAAGACTGGCCAACGATTTCATTAGCCGCCCAATTTGCGCAATGTCTTCTTCCGACATGCCAGAACGATCAACTAATTCACTTTTGGGATCACTAGTTTTAACGTCATAAATATTACGAAGTGTAGGTTCTGCCGGATGGATTTTATCTGGTTCCTGCATATTCAGCATAGTAATCACCTTTTTCTACAAAGTCAGATAAAGTTTATTTTT (double strand) [fragment G]	no binding	–
CACCAATACTACGTTCCACATCGCGAAGACTGGCCAACGATTTCATTAGCCGCCCAATTTGCGCAATGTCTTCTTCCGACATGCCAGAACGATCAACTAATTCACTTTTGGGATCACTAGTTTTAACGTCATAAATATTACGAAGTGTAGGTTCTGCCGGATGGATTTTATCTGGTTCCTGCATATTCAGCATAGTAATCACCTTTTTCTACAAAGTCAGATAAAGTTTATTTTTAAAAATATTAACTCATGGG (double strand) [fragment F]	binds	–
CACCAATACTACGTTCCACATCGCGAAGACTGGCCAACGATTTCATTAGCCGCCCAATTTGCGCAATGTCTTCTTCCGACATGCCAGAACGATCAACTAATTCACTTTTGGGATCACTAGTTTTAACGTCATAAATATTACGAAGTGTAGGTTCTGCCGGATGGATTTTATCTGGTTCCTGCATATTCAGCATAGTAATCACCTTTTTCTACAAAGTCAGATAAAGTTTATTTTTAAAAATATTAACTCATGGGATACTATAAATTTCTTGTAGGC (double strand) [fragment E]	binds	–
CATAAAAATAATGTGCCTACAAGAAATTTATAGTATCCCATGAGTTAATATTTTTAAAAATAAACTTTATCTGACTTTGTAGAAAAAGGTGATTACTATGCTGAATATGCAGGAACCAGATAAAATCCATCCGGCAGAACCTACACTTCGTAATATTTATGACGTTAAAACTAGTGATCCCAAAAGTGAATTAGTTGATCGTTCTGGCATGTCGGAAGAAGACATTGCGCAAATTGGGCGGCTAATGAAATCGTTGGCCAGTCTTCGCGATGTGGAACGTAGTATTGGTG (double strand) [fragment D]	binds	–
GTTCGCTACGTCCGAGTGATCACCTACAAGGACGTCAACATCGAAGAATTAGATAAGCCTGACATCATCATGCCTGAG (double strand) [cg2228 upstream fragment]	no binding	–
TCGAGTATCACACGGCCAGTTATCTCGCAAAAATTCCCAATCGTTGTATATGGCGCTTTATTTTGATGAAGTACAGAAAGTGTGAATTTGGGTCCATAAAAATAATGTGCCTACAAGCCCGGGATAGTATCCCATGAGGGCCTATTTTT (double strand)	no binding	–
